This assay concerns the target T1, recombinant full-length human RAD51 (Bio Academia) (human, UniProt Q06609 1-339).
T1 construct: human RAD51 recombinase, recombinant full-length protein; also called hRAD51; source: bought: Bio Academia
T1 sequence (looked up): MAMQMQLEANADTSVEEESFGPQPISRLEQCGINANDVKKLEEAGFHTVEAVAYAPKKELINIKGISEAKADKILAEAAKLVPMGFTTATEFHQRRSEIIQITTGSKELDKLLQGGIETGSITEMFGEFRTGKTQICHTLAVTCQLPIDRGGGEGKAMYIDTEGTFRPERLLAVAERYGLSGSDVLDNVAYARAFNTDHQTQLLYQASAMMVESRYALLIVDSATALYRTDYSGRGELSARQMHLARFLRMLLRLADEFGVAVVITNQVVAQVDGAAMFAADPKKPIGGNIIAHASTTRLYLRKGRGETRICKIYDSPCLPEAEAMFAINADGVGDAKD
As to the kind of experiment: pull-down; 300 nM GST-fused peptides with 53.6 nM hRAD51 in 50 mM Tris pH 8.0, 150 mM NaCl, 1 mM EDTA, 1 mM DTT, 4°C, 1 h; captured on glutathione sepharose 4B; western blot with anti-RAD51. To be noted: both partners purified. On the technique in general: A western blot detects proteins with antibodies after separation by electrophoresis.

B1: GST-fused wild-type canine BRC3 (cBRC3) (aa 1410-1482) peptide (domain or fragment, UniProt Q8MKI9 1410-1482, looked up)
chain: GQNIKDFDTFYLSFQTASRKNIRVSKESLNKARSLLNQKWTEEELNNFSDSLNSELLPGIDIKKTDISNHEVI
notes: BRC repeat 3 region of canine BRCA2, aa 1410-1482; also called GST-cBRC3; wild-type cBRC3; source: Rosetta II cells (pGEX6p-1), purified (glutathione sepharose 4B)
Turning to B1, the binding result is recorded as “binds”.

B2: GST-fused K1435R mutant canine BRC3 (aa 1410-1482) peptide (domain or fragment, UniProt Q8MKI9 1410-1482, looked up)
chain: GQNIKDFDTFYLSFQTASRKNIRVSRESLNKARSLLNQKWTEEELNNFSDSLNSELLPGIDIKKTDISNHEVI
notes: BRC repeat 3 region of canine BRCA2, aa 1410-1482, with the mammary tumor-derived mutation K1435R; Mutation reported from canine mammary tumor samples; also called K1435R mutant cBRC3; GST-cBRC3 with the K1435R mutation; source: Rosetta II cells (pGEX6p-1), purified (glutathione sepharose 4B)
Consider B2, for which the binding result is given as “binds”.

For the origin of these results see publication PMC3470543, “Effects of the Missense Mutations in Canine BRCA2 on BRC Repeat 3 Functions and Comparative Analyses between Canine and Human BRC Repeat 3” (PLoS ONE, 2012).
